Reference: the supplement of paper PMC7125110
± gives the standard error. For part of these data: Variants at the floor of the assay were thinned out.

B1: glmS ribozyme (parent)
chain: AUAAAAGCGCCAGAACUACAGAAAUGUAGUUGACGAGGAGGAGGUUUAUCGAAUUUUCGGCGGAUGCCUCCAAA

Tests used:
Settings in all cases: with glucosamine-6-phosphate
[1] = variants of: B1; assay: kcat; higher = faster cleavage; RNA array
Outline: (§1)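 Barcoded ribozyme variants on sequenced MiSeq chips were transcribed in situ by E. coli RNA polymerase and followed at 37 °C through a hybridised Cy3 probe. Glucosamine-6-phosphate at 40 μM to 10 mM in HEPES/KCl/Mg(OAc)2 buffer was flowed in, and tiles were imaged over ~14 h. Signals were normalised to baseline and to non-cleaving reference variants, and per-tile medians were fit to one- or two-exponential decays to give kobs. Weighted Michaelis–Menten fits across concentrations gave kcat and KM.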

[2] = variants of: B1; assay: KM; higher = weaker cofactor use; RNA array
Outline: as §1

[3] = variants of: B1; assay: self-cleavage kobs at 160 uM GlcN6P; higher = faster cleavage; RNA array
Outline: as §1

[4] = variants of: B1; assay: self-cleavage kobs at 640 uM GlcN6P; higher = faster cleavage; RNA array
Outline: as §1

[5] = variants of: B1; assay: self-cleavage kobs at 2500 uM GlcN6P; higher = faster cleavage; RNA array
Outline: as §1

[6] = variants of: B1; assay: self-cleavage kobs at 10000 uM GlcN6P; higher = faster cleavage; RNA array
Outline: as §1

[7] = variants of: B1; assay: self-cleavage kobs at 40 uM GlcN6P; higher = faster cleavage; RNA array
Outline: as §1

Variant	kcat [1] [s⁻¹]	KM [2] [mM]	self-cleavage kobs at 160 uM GlcN6P [3] [s⁻¹]	self-cleavage kobs at 640 uM GlcN6P [4] [s⁻¹]	self-cleavage kobs at 2500 uM GlcN6P [5] [s⁻¹]	self-cleavage kobs at 10000 uM GlcN6P [6] [s⁻¹]	self-cleavage kobs at 40 uM GlcN6P [7] [s⁻¹]
U31G A39C	0.00339 ± 0.0008	3.13 ± 1.1	0.000147 ± 3.4e-05	0.000584 ± 0.00012	0.00195 ± 0.00036	0.00236 ± 0.00045	
U46G U55C	0.0109 ± 0.0051		0.000497 ± 5.4e-05	0.00171 ± 0.00029	0.00371 ± 0.00062	0.0103 ± 0.0013	0.000264 ± 3.5e-05
C58A C71G	3.85e-05 ± 8.3e-06			3.58e-05 ± 1.5e-05	4.63e-05 ± 1.1e-05	2.57e-05 ± 1.2e-05	< 1e-05
U30C U31G	0.00836 ± 0.0018	2.37 ± 0.69	0.000404 ± 0.0001	0.00249 ± 0.00044	0.00353 ± 0.0008	0.00701 ± 0.00093	0.000147 ± 1.9e-05
A36U C67G	1.75e-05 ± 5.9e-06						
U45G U46A	0.00906 ± 0.0029	3.87 ± 1.7	0.000641 ± 0.00023	0.000705 ± 0.00032		0.00686 ± 0.0011	0.000106 ± 1.7e-05
U45G A52G	0.000403 ± 0.0001	3.1 ± 1.4		8.01e-05 ± 1.6e-05	0.000142 ± 3.2e-05	0.000345 ± 6e-05	
A15U U56C	0.00101 ± 4.2e-05	2.32 ± 0.15	6.26e-05 ± 9.4e-06	0.000221 ± 2.7e-05	0.000551 ± 6.9e-05	0.0008 ± 9.1e-05	
G38A U69G	3.24e-05 ± 5.7e-06				3.53e-05 ± 1.3e-05		
A15U C67U	0.00194 ± 0.00074		0.000161 ± 1.7e-05	0.000409 ± 3.4e-05	0.00189 ± 0.00029	0.00167 ± 0.00023	5.32e-05 ± 6.3e-06
A14U C70G	0.000149 ± 3.1e-05		5.56e-05 ± 7.3e-06	8.73e-05 ± 9.3e-06	0.000147 ± 1.8e-05		
G32A G59A C68U	1.04e-05 ± 2.4e-06						
A53U U55G A64C	9.81e-05 ± 5.1e-06	3.42 ± 0.52			4.12e-05 ± 1.6e-05	7.31e-05 ± 1.4e-05	
C11U G41A	8.97e-05 ± 1e-05			3.01e-05 ± 1.2e-05	8.81e-05 ± 1.8e-05	7.91e-05 ± 8.6e-06	
G7A C68U	2.24e-05 ± 5.5e-06						
U54C C68G	8.49e-05 ± 1.1e-05			4.44e-05 ± 1e-05	9.2e-05 ± 1.4e-05	7.49e-05 ± 1e-05	
A52G U65G	0.000271 ± 0.00011			5.52e-05 ± 9.3e-06	8.89e-05 ± 9.9e-06	0.00022 ± 3e-05	
A15G G51A	< 1e-05		< 1e-05	< 1e-05			
G59A C67G	1.27e-05 ± 2.9e-06						

Variant	kcat [1] [s⁻¹]	KM [2] [mM]	self-cleavage kobs at 160 uM GlcN6P [3] [s⁻¹]	self-cleavage kobs at 640 uM GlcN6P [4] [s⁻¹]	self-cleavage kobs at 2500 uM GlcN6P [5] [s⁻¹]	self-cleavage kobs at 10000 uM GlcN6P [6] [s⁻¹]	self-cleavage kobs at 40 uM GlcN6P [7] [s⁻¹]
U54G U56G	0.016 ± 0.0043	2.79 ± 0.95	0.000796 ± 0.00017	0.00338 ± 0.00059	0.00688 ± 0.0019	0.013 ± 0.0058	
A6C A14C	1.13e-05 ± 5.2e-07	5.84 ± 0.6					
C8A G35U	< 1e-05				< 1e-05	< 1e-05	
C58U C71A	7.75e-05 ± 1.6e-05					2.61e-05 ± 1.2e-05	
C68G C70A	< 1e-05					< 1e-05	< 1e-05
A15C U45C A53G U69C	0.000427 ± 8e-05	3.74 ± 1.2		5.45e-05 ± 2e-05	0.000198 ± 4.6e-05	0.000288 ± 8.5e-05	< 1e-05
C11A A42G	0.000337 ± 5.9e-05	3.42 ± 1.1		4.77e-05 ± 1.4e-05	0.000184 ± 4.7e-05	0.000239 ± 5e-05	
C67A C68U	0.000125 ± 1.7e-05	0.497 ± 0.2	3.25e-05 ± 7.3e-06	6.61e-05 ± 5.3e-06	0.000126 ± 9.8e-06	0.000106 ± 1e-05	
C16A A36C C71A	< 1e-05					< 1e-05	
U49A U65G	< 1e-05		< 1e-05			< 1e-05	
A14U U49G	0.000127 ± 2.5e-06	3.13 ± 0.2		2.09e-05 ± 1e-05	5.86e-05 ± 2.3e-05	9.65e-05 ± 9.5e-06	
C16U G32C A52G	4.34e-05 ± 1.5e-06	3.6 ± 0.42				3.19e-05 ± 1.3e-05	
U55C C71U	0.00258 ± 5.1e-05	1.62 ± 0.049	0.000225 ± 3.7e-05	0.000749 ± 0.00015	0.00157 ± 0.00021	0.00222 ± 0.00029	6.36e-05 ± 1e-05
G38U C67U	< 1e-05						
A14U C50A	1.95e-05 ± 4.6e-06						
G29A G66C	6.73e-05 ± 1.1e-05	1.94 ± 0.93			4.16e-05 ± 1.1e-05	5.41e-05 ± 1.4e-05	
G13U U54G C70G	4.42e-05 ± 4.5e-06			5.17e-05 ± 2.4e-05	4.17e-05 ± 1.2e-05	4.21e-05 ± 1.5e-05	
A52C U57G	9.64e-05 ± 1.4e-05	2.3 ± 0.96	< 1e-05		5.77e-05 ± 1.5e-05	7.59e-05 ± 1.6e-05	
